Key:
[1] = target: circularly permuted RoCBM21 (CP90) (Rhizopus oryzae); assay: AUC; sedimentation velocity, no ligand, protein around 1.0 mg/ml, 40,000 rpm, 25°C, absorbance at 280 nm, SEDFIT
[2] = target: circularly permuted RoCBM21 (CP90) (Rhizopus oryzae); assay: AUC; data not shown: apoCP90 at pH 2.5, 3, 4, 5, 6, 7, 8, 9 and 10, no ligand

With “circularly permuted RoCBM21 (CP90) (domain or fragment)” as the substance, how does the stoichiometry N [1] read?
Its stoichiometry N is 2.

And the stoichiometry N [2]?
Its stoichiometry N is 2.

From PMC3511584
